One may read the stoichiometry N as the number of molecules, sites or subunits per partner or assembly. The Kd is the free concentration of one partner at which half of the binding sites on the other are occupied at equilibrium, for simple one-to-one binding. A low value points to tighter binding.

The target of data set [1] is OsPYL1 (Oryza sativa (japonica cultivar-group)). Nature of the data set: SEC; Superdex-200 HR10/300 GL, 25 mM HEPES pH 7.0, 150 mM NaCl; 500 µL OsPYL (OD280 = 0.75) applied; oligomerization state. Background: In gel filtration, larger molecules generally elute earlier.
Data set [2] shares this target. Kind of data set: AUC; sedimentation velocity at 4°C, 40,000 rpm; OsPYL proteins at OD280 = 0.75; absorbance at 280 nm; oligomerization state.
For data set [3] the target is unchanged. Nature of the data set: static light scattering; DAWN HELLOS II (Wyatt) at 18°C; OsPYLs about 2 mg/mL; calibrated with albumin monomer standard; oligomerization state.
The target in data set [4] is OsPYL12 (Oryza sativa (japonica cultivar-group)). Kind of data set: SEC; Superdex-200 HR10/300 GL, 25 mM HEPES pH 7.0, 150 mM NaCl; 500 µL OsPYL (OD280 = 0.75) applied; oligomerization state.
Data set [5] has the same target. Kind of data set: AUC; sedimentation velocity at 4°C, 40,000 rpm; OsPYL proteins at OD280 = 0.75; absorbance at 280 nm; oligomerization state.
Data set [6] has the same target. Nature of the data set: static light scattering; DAWN HELLOS II (Wyatt) at 18°C; OsPYLs about 2 mg/mL; calibrated with albumin monomer standard; oligomerization state.
In another data set the target is T1, OsPYL2 (Oryza sativa, UniProt Q5Z8S0).
T1 construct: gene PYL9; recombinant, E. coli BL21(DE3), pET-15b, Ni-NTA; mainly dimer; residues named: K74, F76, V98, L102, P103, A104, S107, E109, V125, L132, E162, F180, V184, N188
T1 sequence (Q5Z8S0 1-207): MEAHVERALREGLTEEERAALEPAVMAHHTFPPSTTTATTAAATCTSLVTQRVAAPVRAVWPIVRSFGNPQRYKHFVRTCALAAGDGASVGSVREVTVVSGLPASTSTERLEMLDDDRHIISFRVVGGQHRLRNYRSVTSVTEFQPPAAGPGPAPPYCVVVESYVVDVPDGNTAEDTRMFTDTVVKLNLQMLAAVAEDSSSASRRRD
Kind of data set: isothermal titration calorimetry. Format: binding. (In general: In ITC the heat of successive injections is recorded.)

The target of the next data set is T2, OsPYL11 (with OsPP2C09) (Oryza sativa, UniProt Q6I5C3).
T2 construct: gene PYL5; recombinant, E. coli BL21(DE3), pET-15b; OsPYL11 monomer; equals OsPYL/RCAR5 of earlier work; with Probable protein phosphatase 2C 9
T2 sequence (Q6I5C3 1-209): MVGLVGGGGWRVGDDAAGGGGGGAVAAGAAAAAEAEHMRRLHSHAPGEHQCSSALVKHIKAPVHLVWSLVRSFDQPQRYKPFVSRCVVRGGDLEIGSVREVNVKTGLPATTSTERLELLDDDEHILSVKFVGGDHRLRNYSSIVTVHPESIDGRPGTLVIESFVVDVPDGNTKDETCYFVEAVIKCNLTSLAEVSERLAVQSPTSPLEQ
T2 sequence (Q5N9N2 1-414 partner): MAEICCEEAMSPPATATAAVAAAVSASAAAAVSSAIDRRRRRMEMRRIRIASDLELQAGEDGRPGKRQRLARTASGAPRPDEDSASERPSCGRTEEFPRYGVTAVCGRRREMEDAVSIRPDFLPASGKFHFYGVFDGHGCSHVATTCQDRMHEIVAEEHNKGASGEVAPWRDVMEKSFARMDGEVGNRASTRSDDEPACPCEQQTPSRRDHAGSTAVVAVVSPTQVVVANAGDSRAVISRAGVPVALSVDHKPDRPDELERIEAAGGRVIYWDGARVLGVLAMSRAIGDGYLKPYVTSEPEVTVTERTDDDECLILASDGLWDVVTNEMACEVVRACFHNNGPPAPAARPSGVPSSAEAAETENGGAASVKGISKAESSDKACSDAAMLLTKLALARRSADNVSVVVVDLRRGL
Kind of data set: Ser/Thr phosphatase assay, inhibition of OsPP2C09 by receptor. It is filed as biochemical. Particulars: ABA ten fold of OsPYL; OsPP2C09 1.8 µM; read at 630 nm.

Data set [7] concerns the molecule itself. Nature of the data set: SEC; Superdex-200 HR10/300 GL, 25 mM HEPES pH 7.0, 150 mM NaCl; 500 µL OsPYL (OD280 = 0.75) applied; oligomerization state.

For the molecule OsPYL1 (receptor), the stoichiometry N in data set [1], in data set [2] and in data set [3] was 2 throughout.
Take OsPYL12 (receptor): the stoichiometry N in [4], in data set [5] and in [6] was 2 each time.
For `CC1=CC(=O)CC(C)(C)C1(O)/C=C/C(C)=C\C(=O)O` (stereo in doubt) [(+)-ABA], the Kd on OsPYL2 was about 31.3 µM. Besides, on OsPYL11 (with OsPP2C09), the “Ser/Thr phosphatase assay, inhibition of OsPP2C09 by receptor” value was “in the presence of ABA, all of the OsPYLs proteins could completely inhibit”.

B1: OsPYL2 (receptor, Oryza sativa (japonica cultivar-group))
chain: T1 sequence (Q5Z8S0 1-207)
notes: OsPYL2, ABA receptor (PYR1/PYL/RCAR ortholog) of Oryza sativa (japonica cultivar-group); Dimer when alone in solution (SEC, SLS, AU); stands with OsPP2C06 and ABA in the crystallised ternary complex; source: E. coli BL21 (DE3), vector pET-15b, purified (Ni-NTA, Source-15Q, Superdex-200); for the complex coexpressed with His6-OsPP2C06 (132-467) in E. coli BL21 (DE3) and purified with 0.2 mM (+)-ABA
B1: in data set [7], the “stoichiometry N” value was 2.

B2: OsPYL3 (receptor)
chain: ERGRGGVGAEDARGGADEVAARERLEGVVRAHHTFPAAERAAGPGRRPTCTSLVAQRVDAPLAAVWPIVRGFANPQRYKHFIKSCELAAGDGATVGSVREVAVVSGLPASTSTERLEILDDDRHVLSFRVVGGDHRLRNYRSVTSVTEFSSPSSPPRPYCVVVESYVVDVPEGNTEEDTRMFTDTVVKLNLQKLAAVATSSSPPAAGNHH
Turning to B2, the “stoichiometry N” value in [7] is 2.

Values taken from publication PMC3990689, “Identification and Characterization of ABA Receptors in Oryza sativa” (PLoS ONE, 2014).
